Drawing on patent US20100166708A1, “ANTIMICROBIAL AND ANTI-INFLAMMATORY THERAPIES AND COMPOSITIONS” (THE REGENTS OF THE UNIVERSITY OF CALIFORNIA, priority 2007, published 2010), this text covers deltaG^1(H2O) and MIC of delta-haemolysin against GAS in the presence of 2 µM PSMdelta for one substance.

Assay [1] addresses delta-haemolysin (Staphylococcus epidermidis). Briefly: tryptophan fluorescence, urea dissociation of peptide complexes, 25 µM peptide.
The target in assay [2] is phenol soluble modulin-delta (Staphylococcus epidermidis). Put plainly: cell-based or functional assay.
Assay [3] deals with delta-haemolysin (Staphylococcus epidermidis). Put plainly: tryptophan fluorescence, urea dissociation of peptide complexes, 5 µM peptide.

Regarding delta-haemolysin (peptide), the results for the deltaG^1(H2O) in assay [1] and in assay [3] were 1.57 kcal/mol and 1.43 kcal/mol, respectively. Further, in assay [2], the MIC of delta-haemolysin against GAS in the presence of 2 µM PSMdelta was 4 µM.
